{
  "source": "patent US11807868",
  "assay_in_all_cases": "cell-based or functional assay",
  "key": {"[1]": {"target": "AAV2 capsid variant 1.45 (adeno-associated virus type 2 (AAV2)) (UniProt P03135)"}, "[2]": {"target": "SM 100-3 variant AAV capsid (Adeno-associated virus 2 (isolate Srivastava/1982) (AAV-2)) (UniProt P03135)"}, "[3]": {"target": "AAV2 capsid variant γ4.3 (adeno-associated virus type 2 (AAV2)) (UniProt P03135)"}, "[4]": {"target": "wild-type AAV2 capsid (adeno-associated virus type 2 (AAV2)) (UniProt P03135)"}, "[5]": {"target": "SM 10-8 variant AAV capsid (Adeno-associated virus 2 (isolate Srivastava/1982) (AAV-2)) (UniProt P03135)"}, "[6]": {"target": "wild-type AAV1 capsid (adeno-associated virus type 1 (AAV1))"}, "[7]": {"target": "wild-type AAV8 capsid (adeno-associated virus type 8 (AAV8))"}, "[8]": {"target": "SM 100-10 variant AAV capsid (Adeno-associated virus 2 (isolate Srivastava/1982) (AAV-2)) (UniProt P03135)"}, "[9]": {"target": "SM 10-2 variant AAV capsid (Adeno-associated virus 2 (isolate Srivastava/1982) (AAV-2)) (UniProt P03135)"}},
  "data": [
    {"substance": "Gamimune N, 10% Human IVIG (Bayer, Elkhart Ind.)", "values": [
      {"measurement": "fold enhanced resistance to pooled human IVIg compared to wild-type AAV2", "setting": "[1]", "result": 1.23, "unit": "fold"},
      {"measurement": "Fold Resistance Relative to AAV2", "setting": "[2]", "result": 4.94, "unit": "fold"},
      {"measurement": "Neutralizing IVIG concentration (IVIG required to reduce gene delivery efficiency to 50% of that in the absence of IVIG)", "setting": "[2]", "result": 0.074, "unit": "mg/mL"},
      {"measurement": "fold enhanced resistance to pooled human IVIg compared to wild-type AAV2", "setting": "[3]", "result": 3.1, "unit": "fold"},
      {"measurement": "Fold Resistance Relative to AAV2", "setting": "[4]", "result": 1, "unit": "fold"},
      {"measurement": "Neutralizing IVIG concentration (IVIG required to reduce gene delivery efficiency to 50% of that in the absence of IVIG)", "setting": "[4]", "result": 0.015, "unit": "mg/mL"},
      {"measurement": "Fold Resistance Relative to AAV2", "setting": "[5]", "result": 3.41, "unit": "fold"},
      {"measurement": "Neutralizing IVIG concentration (IVIG required to reduce gene delivery efficiency to 50% of that in the absence of IVIG)", "setting": "[5]", "result": 0.051, "unit": "mg/mL"},
      {"measurement": "Fold Resistance Relative to AAV2", "setting": "[6]", "result": 1.76, "unit": "fold"},
      {"measurement": "Neutralizing IVIG concentration (IVIG required to reduce gene delivery efficiency to 50% of that in the absence of IVIG)", "setting": "[6]", "result": 0.026, "unit": "mg/mL"},
      {"measurement": "Fold Resistance Relative to AAV2", "setting": "[7]", "result": 6.11, "unit": "fold"},
      {"measurement": "Neutralizing IVIG concentration (IVIG required to reduce gene delivery efficiency to 50% of that in the absence of IVIG)", "setting": "[7]", "result": 0.092, "unit": "mg/mL"},
      {"measurement": "Fold Resistance Relative to AAV2", "setting": "[8]", "result": 4.39, "unit": "fold"},
      {"measurement": "Neutralizing IVIG concentration (IVIG required to reduce gene delivery efficiency to 50% of that in the absence of IVIG)", "setting": "[8]", "result": 0.066, "unit": "mg/mL"},
      {"measurement": "Fold Resistance Relative to AAV2", "setting": "[9]", "result": 7.52, "unit": "fold"},
      {"measurement": "Neutralizing IVIG concentration (IVIG required to reduce gene delivery efficiency to 50% of that in the absence of IVIG)", "setting": "[9]", "result": 0.113, "unit": "mg/mL"}
    ]}
  ]
}
